Test: soluble on expression in E. coli; label from the status in PepcDB or PDB records

Q: Which “soluble on expression in E. coli” value does the source give for “MDKYRLLLLGGGRGLFDIDEDFMHWIDEFIEEHSNSIEITIVTGKNKKLYDNLTHKKPLKNIKVLGFVNDMYNLIRECDLMLTKPGGATIFEAIQSQTPVLVKMPKVGQEIENAKFIIDKGLGMIYSDDLDLKNIFYKLVSNEFDSIINFMKKNLKEFKTVIHPEKIADYISELIDNHLEHHHHHH” here?
A: not soluble

Q: Which “soluble on expression in E. coli” value does the source give for “MGSDKIHHHHHHMTSAYCTVLSKGRLYQAVALFKSLEQVDQDSPIFILCMDEDTHRVLQKLKMKQLNLVPVAALENELLLKLKETRDQSEYCWTMKPIFLQAVLNSNPELERVTYIDGDLFFYADPSPIFENQPDCSVLLSRGDIVIPSFEKEQIDMLQRLLGRYNSGFISFKHDDAGTDCLEWWKERCLEECKNAPGEGKFGDQGYLDYMSELFPNVCDITTPGVNIGHWNYGQHTFSWKDGRIVLEDGSPLIFYHFSGYRIVSINEIKQIHETTRTDLPFVHELYQETLPHIIQHMQTLDPEFNGFASKDDNK” here?
A: not soluble

Q: Which “soluble on expression in E. coli” value does the source give for “METSMITELKSVRDIWKKMPSERHARIFLEEMIWPSGRHCPHCGSLSSTPIRGRTARPGLYQCAERECCLQFTVTTKTPMHATKLDLRIWIAAIFLMLTSSKGISSVVMARILGVNQKTAWKLGHAIRELMDEREAVSARLAGVVEVDEAYVGGAPKFKKGVKNKRGRGTGKPMVLVAADRTGQAKATLIPNAKGATLGPIMKEWIDPSSALMTDSNTAYRKIGRSFASHHTVNHGKRQHSRPSKGAHINTVEAVNSQVQRALIGVYHRLGRQHLQRYLDEILWQWNHRQQEVKIRNRKTSSGTKTIATRVWKPIPVVDQMRGLLCCAVGRQLRRTPQWGLCWPIHLFEHKGTFA” here?
A: soluble

Q: For “MAHHHHHHMEINISNITNSSNNKKERVNIHSHIKGLGVNTNIYLHENEISLSDEKYSMFFDNSCGLVGQFKAREASLFLVDLIKQKKLAGKCILLAGPSGSGKSALAIGISREINRKMPFVFLSGSEVYSNEIKKTEVILEAFRKSIHIKIKEEKLVYEGEVVDMVVEENECLYSLNKAKQINAIIITLKSVKGSKTLRLAPKIHEQIAREKIKIGDVIYIETNTGHVKRLGRCNDYAKEYDIEFDEYVSLPKGEVHKKKEVVQQISLHDIDLANANPTVGEDLASVLNSYLRPKKTEITEKLRVEINKTVNKFLESGLAEIIPGVLYIDEAHMLDIECFSYLNRAIESPLAPILIMATNRGICTVKGTDNIEPHGIPVDLLDRLIIIKTFPYTLKEIVQILALRAQTEKINITEEGMNYLAKIGIQSSLRFAMLLLEPSRILATLEGNTIIDIKHIEQADELFMDAKTSAHRVVDQSNKFVN”, which “soluble on expression in E. coli” value is on record?
A: not soluble

Q: For “MSLNEITLNVLYNLPGFTKFHQPLADEFMKKNPDVKINFLAPAAGYNEGQQQVLRSAVTGNLPDVYFSGYNLTAELVHTLAPRNQITDLGPFIQAEGGQAFLDKNYSPKMAALGQIDGKQYGLPVNASSPIIYINSDLVTKAGGDPDKMPTTFPELIALAKKIKALDPKFAGMSYDINGWPDDWLWQALVVEQGGKLVDDKTKTVAFDNEIGLNALKMTRQFVTEGGQNLLDWDQSRQQFGAGLTGFIFSTPAHVQTIQGLVGDRFKLKTATFPLDNKEKGGVPTGGNSAVILTQEKAKQDAAWKYLKWITGPEAQNTIVRITGYLPTNKLATGPDFLAPYYVENPNVKTASLQADRSLPWAGYPGGDSVRIWRTQRDIIGTVMRGEVTPEAGLKQIVEQTNALLKEGHHHHHH”, which “soluble on expression in E. coli” value is on record?
A: soluble

Q: For “AHPELKSSVPQADSAVAAPEKIQLNFSENLTVKFSGAKLTMTGMKGMSSHSPMPVAAKVAPGADPKSMVIIPREPLPAGTYRVDWRAVSSDTHPITGNYTFTVK”, which “soluble on expression in E. coli” value is on record?
A: soluble

Q: Which “soluble on expression in E. coli” value does the source give for “MGSDKIHHHHHHLQFAVLSSGSAGNCSLLMTDQHKILMDAGLSGKKTKELLAKVGVAIEDLDMVFLSHDHGDHSGGMGVLMRRYPQLNAFSNTVTWKYLEETGKIGCLPKDQINVIEPGQTKCYGDLEVTAFATSHDAAQPQYYVFSSGGKRLACLTDTGYVSEEVEYEIQDADAYLLEFNYDDLMLRSGPYPWSLQQRVRSDHGHLSNEQAAETLARVISSKTKHVFMAHRSQQNNLNYLARDVAEEVLAARDADVASDLELHDTEPMTPSSLINL” here?
A: not soluble

Q: Which “soluble on expression in E. coli” value does the source give for “GPGSMRLVDLSLPLYDGMPVYDGDPPVHVTKVCTREKDGWEVRHLQMGSHTGTHVDAPAHMHEDGSNLDEVPLTRFCGPAVVVKVADSSFPPNKGLLFYEAVPADCVPRIVAANAPFVGGPLEEKAERLLLGCGIITYTGLVNVEQLIGESFTFYGLPLRIRGGDGSPVRAVAVMDDK” here?
A: soluble

From the DeepSol protein solubility set
